Blank lines part the entries; values can stand above or below the substance they belong to.
Tests used:
Test in all cases: ITC
PER1 1013-1291 = PER1 1013-1291 (UniProt O35973)
[1] = target: hRbBP5 (Isoform 2) (human)
PER2 1132-1252 = PER2 1132-1252 (UniProt O54943)
UniProt O54943, sequence (O54943 1132-1252): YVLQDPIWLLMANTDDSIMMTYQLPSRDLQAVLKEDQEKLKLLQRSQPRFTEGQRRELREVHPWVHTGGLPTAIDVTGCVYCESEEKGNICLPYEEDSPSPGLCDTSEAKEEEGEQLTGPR

UniProt O35973, sequence (O35973 1013-1291): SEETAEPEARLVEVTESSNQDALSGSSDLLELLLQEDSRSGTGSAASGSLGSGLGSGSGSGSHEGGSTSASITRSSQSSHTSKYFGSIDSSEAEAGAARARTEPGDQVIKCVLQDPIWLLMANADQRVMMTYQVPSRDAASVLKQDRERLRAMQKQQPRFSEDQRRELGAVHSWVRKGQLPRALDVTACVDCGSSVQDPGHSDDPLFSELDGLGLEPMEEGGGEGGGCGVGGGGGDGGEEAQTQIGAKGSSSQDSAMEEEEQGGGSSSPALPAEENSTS

Kd (PER1 1013-1291): 7 µM
Substance: WDR5 23-334 N225A (from UniProt P61964 23-334) (domain or fragment; other documents disagree on this pair)

Kd [1]: 71 µM
Substance: WDR5 23-334 N225A (from UniProt P61964 23-334) (domain or fragment)

Kd (PER2 1132-1252): 50 µM
Substance: WDR5 23-334 (from UniProt P61964 23-334) (domain or fragment; other documents disagree on this pair)

From publication doi:10.1101/2023.06.05.543739
